Reference: the supplement of paper PMC9233669
Variants at the floor of the assay were thinned out.

Assays:
biotinyl-Phe-oxazolone = test: self-aminoacylation, catalytic enhancement (BFO) (fold over background); higher = more active; k-Seq, kA / k0A0; sequences stand for … in GGGAAUGGAUCCACAUCUACGAAUUC…UUCACUGCAGACUUGACGAAGCUG
How it was run: (§1)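 Mutagenized RNA pools (0.43 μM; 21-nt variable region) were treated with 2–1250 μM of each biotinyl-aminoacyl-oxazolone. Conditions were 50 μL HEPES/NaCl/KCl/MgCl2/CaCl2 buffer, 5% acetonitrile, pH 6.9–7.0, room temperature, 90 minutes. Catalytic enhancement, the median kA relative to the uncatalyzed rate, was derived from streptavidin capture, qPCR and Illumina sequencing.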

biotinyl-Ile-oxazolone = test: self-aminoacylation, catalytic enhancement (BIO) (fold over background); higher = more active; k-Seq, kA / k0A0; sequences stand for … in GGGAAUGGAUCCACAUCUACGAAUUC…UUCACUGCAGACUUGACGAAGCUG
How it was run: as §1

biotinyl-Met-oxazolone = test: self-aminoacylation, catalytic enhancement (BMO) (fold over background); higher = more active; k-Seq, kA / k0A0; sequences stand for … in GGGAAUGGAUCCACAUCUACGAAUUC…UUCACUGCAGACUUGACGAAGCUG
How it was run: as §1

biotinyl-Val-oxazolone = test: self-aminoacylation, catalytic enhancement (BVO) (fold over background); higher = more active; k-Seq, kA / k0A0; sequences stand for … in GGGAAUGGAUCCACAUCUACGAAUUC…UUCACUGCAGACUUGACGAAGCUG
How it was run: as §1

biotinyl-Leu-oxazolone = test: self-aminoacylation, catalytic enhancement (BLO) (fold over background); higher = more active; k-Seq, kA / k0A0; sequences stand for … in GGGAAUGGAUCCACAUCUACGAAUUC…UUCACUGCAGACUUGACGAAGCUG
How it was run: as §1

biotinyl-Trp-oxazolone = test: self-aminoacylation, catalytic enhancement (BWO) (fold over background); higher = more active; k-Seq, kA / k0A0; sequences stand for … in GGGAAUGGAUCCACAUCUACGAAUUC…UUCACUGCAGACUUGACGAAGCUG
How it was run: as §1

Sequence	self-aminoacylation (biotinyl-Phe-oxazolone)	self-aminoacylation (biotinyl-Ile-oxazolone)	self-aminoacylation (biotinyl-Met-oxazolone)	self-aminoacylation (biotinyl-Val-oxazolone)	self-aminoacylation (biotinyl-Leu-oxazolone)	self-aminoacylation (biotinyl-Trp-oxazolone)
CCACACUUUAAGCAAUGGGUC [Fam1B.1 aminoacylation ribozyme variant]	0.774	0.696	0.686	0.613	0.618	0.612
CCACACUUUAAGCAUUCGGUC [Fam1B.1 aminoacylation ribozyme variant]	1.05	1.39	1.01	1.3	1.21	1.36
CCACACUUUCAGCAAUCGGUC [Fam1B.1 aminoacylation ribozyme variant]	1.04	1.01	0.799	1.09	0.966	0.664
CCACAGUUCAAGAAAUCGGUC [Fam1B.1 aminoacylation ribozyme variant]	1.71	1.06	1.22	1.18	1.22	1.67
CCACAGUUCAAGCAAUAGGUC [Fam1B.1 aminoacylation ribozyme variant]	1.14	0.794	0.783	0.862	0.731	0.858
CCACAGUUCAAGCAAUCAGUC [Fam1B.1 aminoacylation ribozyme variant]	1.73	0.829	0.662	0.781	0.76	0.814
CCACAGUUCAAGCAAUCGGUG [Fam1B.1 aminoacylation ribozyme variant]	25.9	3.29	4.04	3.14	5.44	3.62
CCACAGUUCAAGCCAUCGGUC [Fam1B.1 aminoacylation ribozyme variant]	1.14	1.87	2.33	2.17	2.53	1.3
CCACAGUUCAAUCAAUCGGUC [Fam1B.1 aminoacylation ribozyme variant]	2.95	0.806	0.905	0.96	0.881	2.08
CCACAUUUCAAACAAUCGGUC [Fam1B.1 aminoacylation ribozyme variant]	17.8	1.41	1.33	1.28	1.31	9.95
CCACAUUUCAAGCAAUCAGUC [Fam1B.1 aminoacylation ribozyme variant]	1.71	1	0.755	1.1	0.906	0.884
CCACAUUUCAAGCAAUCGCUC [Fam1B.1 aminoacylation ribozyme variant]	2.39	2.6	2	2.42	2.17	2.38
CCACAUUUCAAGCACUCGGUC [Fam1B.1 aminoacylation ribozyme variant]	0.933	1.25	1.15	1.37	1.16	0.97
